Results reported in publication PMC3310279 (Bioconjugate Chemistry, 2012).

System: MDA-MB-435 human breast tumor xenografts
Assay: Biodistribution in mice bearing MDA-MB-435 xenografts
Assay type: in vivo
Conditions: MDA-MB-435 tumor-bearing athymic nude mice, 60 min p.i., mean ± SD n = 4

Substance: [^99mTc(HYNIC-K(NIC)-3G-RGD2)(tricine)] [Complex 2]
- Tumor/Liver ratio: 4.1 ± 0.97
